According to the supplement of paper PMC12042874:
± gives the uncertainty stated by the source.

Assay: amyloid nucleation score (Sup35N fusion, yeast selection) (log enrichment); library NNK1; higher = more nucleation; inactive = no reads after selection
Procedure, shortened: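 DiMSum was used to calculate nucleation scores as log enrichment of output over input reads, centred on the mode score of non-aggregating sequences. Sequences with fewer than 100 input reads were not scored. Input and output came from Illumina sequencing of plasmid inserts in psi-negative yeast expressing peptides of 20 random codons fused to Sup35N, induced 24 hours with 100 μM copper sulfate and then grown 7 days at 30°C on medium lacking adenine and uracil.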

Question: With NHVLVVGISNLSSCHWMPNF as the substance, how does the amyloid nucleation score read?
Answer: Its amyloid nucleation score is 3.14 ± 0.12.

Question: Which amyloid nucleation score does the source give for YQRSTWSSWNQVRYYHEFQR here?
Answer: The amyloid nucleation score was 1.59 ± 0.3.

Question: Which amyloid nucleation score does the source give for LVFSRYYRCLFTIDF here?
Answer: The amyloid nucleation score was 3.62 ± 0.11.

Question: With HVVFTKMCSNTTET as the substance, how does the amyloid nucleation score read?
Answer: Its amyloid nucleation score is 0.026 ± 0.49.

Question: With VFTLPLDWQKRCGYDSLRFP as the substance, how does the amyloid nucleation score read?
Answer: Its amyloid nucleation score is 0.018 ± 0.44.

Question: Which amyloid nucleation score does the source give for NRRDDNQCVSWIGVKAKVLS here?
Answer: The amyloid nucleation score was 0.564 ± 0.43.

Question: With YLSCLNFRLGSMFMRSL as the substance, how does the amyloid nucleation score read?
Answer: Its amyloid nucleation score is 0.653 ± 0.93.

Question: For FHVIGSARTLVVAQYLK, which amyloid nucleation score is on record?
Answer: The amyloid nucleation score was “inactive”.

Question: Which amyloid nucleation score does the source give for KYVCGLTDTVIRGMLKVIRA here?
Answer: The amyloid nucleation score was 0.559 ± 0.27.

Question: For EILFFEFFKNEFLYCHKMLC, which amyloid nucleation score is on record?
Answer: Its amyloid nucleation score is 0.902 ± 0.4.

Question: With AGSDGQGDGEQWRNHLRPIA as the substance, how does the amyloid nucleation score read?
Answer: The amyloid nucleation score was -0.294 ± 0.64.

Question: With KFIIAGNLNQKSTSWV as the substance, how does the amyloid nucleation score read?
Answer: The amyloid nucleation score was 2.23 ± 0.086.

Question: For VWFVVGGGE, which amyloid nucleation score is on record?
Answer: Its amyloid nucleation score is 1.7 ± 0.42.

Question: Which amyloid nucleation score does the source give for FADERIGYSIK here?
Answer: Its amyloid nucleation score is -0.336 ± 0.44.

Question: For ITLVDVVG, which amyloid nucleation score is on record?
Answer: Its amyloid nucleation score is 0.082 ± 0.34.

Question: With FVLQWRNIRVVDLRMRPYPK as the substance, how does the amyloid nucleation score read?
Answer: The amyloid nucleation score was 0.508 ± 0.28.

Question: Which amyloid nucleation score does the source give for AVLKGYRWACMVFLSGFGRC here?
Answer: Its amyloid nucleation score is 0.243 ± 0.41.

Question: Which amyloid nucleation score does the source give for SSWSGMFTCSYTMMLWLRRL here?
Answer: The amyloid nucleation score was -0.692 ± 0.75.

Question: With CFFPIRDQQCTRSYHFSDHM as the substance, how does the amyloid nucleation score read?
Answer: Its amyloid nucleation score is 0.727 ± 0.63.

Question: With LYVPCAIVGSLTRG as the substance, how does the amyloid nucleation score read?
Answer: Its amyloid nucleation score is 1.06 ± 0.66.

Question: Which amyloid nucleation score does the source give for TEDPYSGPILKEPVDLCWLE here?
Answer: Its amyloid nucleation score is 0.494 ± 0.74.

Question: For DAYMMLFLYSPVWECFLMKG, which amyloid nucleation score is on record?
Answer: The amyloid nucleation score was -0.084 ± 0.28.

Question: For GSSKWISSHRVIDDFSYKRG, which amyloid nucleation score is on record?
Answer: The amyloid nucleation score was 0.406 ± 0.49.

Question: For FMQLTYRMCGSPSIRVNGVL, which amyloid nucleation score is on record?
Answer: The amyloid nucleation score was 0.685 ± 0.34.

Question: With SGTTRWCRGGV as the substance, how does the amyloid nucleation score read?
Answer: The amyloid nucleation score was 0.127 ± 0.74.

Question: Which amyloid nucleation score does the source give for LLGIEFTSDLLPIPSISPNE here?
Answer: The amyloid nucleation score was 0.239 ± 0.63.

Question: For FRLTLGIVVLLVGK, which amyloid nucleation score is on record?
Answer: The amyloid nucleation score was “inactive”.

Question: With SRRNYWVFGGHMFND as the substance, how does the amyloid nucleation score read?
Answer: Its amyloid nucleation score is -0.134 ± 1.7.

Question: With FLVPEVEKIFNIRVLEVRLM as the substance, how does the amyloid nucleation score read?
Answer: The amyloid nucleation score was -0.834 ± 0.6.

Question: Which amyloid nucleation score does the source give for TECSSSGIALMWVFWRSICT here?
Answer: The amyloid nucleation score was “inactive”.

Question: With YSLAMRLVPGPPQDENHTVN as the substance, how does the amyloid nucleation score read?
Answer: Its amyloid nucleation score is -1.94 ± 1.8.

Question: With SDALTKMDLITLRDKI as the substance, how does the amyloid nucleation score read?
Answer: Its amyloid nucleation score is “inactive”.

Question: With GSDVREWLVQQSKSMFLWVW as the substance, how does the amyloid nucleation score read?
Answer: The amyloid nucleation score was -0.226 ± 0.47.

Question: With TLLWFNEFILSGPNFRIGVV as the substance, how does the amyloid nucleation score read?
Answer: The amyloid nucleation score was 0.857 ± 0.58.

Question: For RYKNSIDSESVINRLLWDAT, which amyloid nucleation score is on record?
Answer: The amyloid nucleation score was 0.431 ± 0.8.

Question: Which amyloid nucleation score does the source give for QEPCGW here?
Answer: The amyloid nucleation score was -0.172 ± 0.29.

Question: For TSDGVMMVR, which amyloid nucleation score is on record?
Answer: The amyloid nucleation score was 0.564 ± 0.34.

Question: Which amyloid nucleation score does the source give for IAVFWCFKMNWALMMRTKDM here?
Answer: The amyloid nucleation score was 0.13 ± 0.38.

Question: For SPSYQRCLQMLEKIWKDLNH, which amyloid nucleation score is on record?
Answer: Its amyloid nucleation score is 0.497 ± 0.31.

Question: For ECTRSGVFSCNSWIKYESSM, which amyloid nucleation score is on record?
Answer: The amyloid nucleation score was -0.145 ± 0.31.

Question: Which amyloid nucleation score does the source give for EKGFVYYTRGYLRDGLGRSQ here?
Answer: Its amyloid nucleation score is -0.222 ± 0.35.

Question: Which amyloid nucleation score does the source give for VGLLEAFMLRGDSRRCD here?
Answer: Its amyloid nucleation score is -1.25 ± 2.1.

Question: Which amyloid nucleation score does the source give for IFVVMQTIFMWLDSWADQSL here?
Answer: The amyloid nucleation score was 0.391 ± 0.35.

Question: Which amyloid nucleation score does the source give for MNLSYSTIVIYHRNEDCNVY here?
Answer: The amyloid nucleation score was 4.08 ± 0.094.

Question: With PFVQRFCL as the substance, how does the amyloid nucleation score read?
Answer: The amyloid nucleation score was 0.486 ± 0.49.

Question: For RHYSARQWQIWGFCDLPHSR, which amyloid nucleation score is on record?
Answer: Its amyloid nucleation score is 0.086 ± 0.66.

Question: With VRHDITARERLSGLWQ as the substance, how does the amyloid nucleation score read?
Answer: Its amyloid nucleation score is -0.047 ± 1.1.

Question: Which amyloid nucleation score does the source give for IGLFWSFVKKIEVIICVGML here?
Answer: Its amyloid nucleation score is 0.665 ± 0.9.

Question: For SNEVVKFKWSCIPETCSRVW, which amyloid nucleation score is on record?
Answer: The amyloid nucleation score was 0.429 ± 0.61.

Question: For NFRNSGESSTNYSK, which amyloid nucleation score is on record?
Answer: Its amyloid nucleation score is “inactive”.

Question: Which amyloid nucleation score does the source give for LFIVTFSYFLSPRLVQWYAL here?
Answer: The amyloid nucleation score was 0.516 ± 0.67.

Question: Which amyloid nucleation score does the source give for TGNTIAVRLLGKTNWTLIKT here?
Answer: The amyloid nucleation score was -0.1 ± 0.23.

Question: For IMFTWWEYRLRSLEV, which amyloid nucleation score is on record?
Answer: Its amyloid nucleation score is -0.334 ± 0.48.

Question: Which amyloid nucleation score does the source give for SFREHGRSSNRP here?
Answer: The amyloid nucleation score was 0.423 ± 1.4.

Question: With FILIYTAPFIGGLVGLGDGH as the substance, how does the amyloid nucleation score read?
Answer: Its amyloid nucleation score is “inactive”.

Question: For VDLDSVR, which amyloid nucleation score is on record?
Answer: Its amyloid nucleation score is -0.236 ± 0.48.

Question: With YNVLCYFLNRFWMGYWYLLS as the substance, how does the amyloid nucleation score read?
Answer: Its amyloid nucleation score is 1.5 ± 0.5.

Question: For WVVVDTLVRTGGCCWGYWKT, which amyloid nucleation score is on record?
Answer: Its amyloid nucleation score is 1.91 ± 0.27.

Question: Which amyloid nucleation score does the source give for EMYKTRAFLSRKYMRHLLFN here?
Answer: Its amyloid nucleation score is -0.316 ± 0.39.

Question: Which amyloid nucleation score does the source give for HRFDW here?
Answer: Its amyloid nucleation score is 1.07 ± 0.48.

Question: For SFYCSHEVYLCNALYIDRVR, which amyloid nucleation score is on record?
Answer: The amyloid nucleation score was 3.67 ± 0.098.

Question: For NISSIASVWVCVKVRYVSYS, which amyloid nucleation score is on record?
Answer: The amyloid nucleation score was 0.432 ± 0.59.

Question: Which amyloid nucleation score does the source give for RYVCTESESVDLSQMAVIMS here?
Answer: Its amyloid nucleation score is 1.13 ± 0.4.

Question: Which amyloid nucleation score does the source give for IAYKPLTWSSWEGSISIIRV here?
Answer: Its amyloid nucleation score is 0.149 ± 0.4.

Question: Which amyloid nucleation score does the source give for TIVGWSITIVRLHSFIFFNG here?
Answer: The amyloid nucleation score was 0.021 ± 0.35.

Question: For ACPVGTRFTVATTFRRMLCE, which amyloid nucleation score is on record?
Answer: Its amyloid nucleation score is 0.312 ± 0.47.

Question: For TCVCQFIWG, which amyloid nucleation score is on record?
Answer: Its amyloid nucleation score is -0.086 ± 0.79.

Question: For APLYLHMWSCYSLMLSPSMG, which amyloid nucleation score is on record?
Answer: Its amyloid nucleation score is -1.5 ± 2.4.

Question: For YYWVT, which amyloid nucleation score is on record?
Answer: Its amyloid nucleation score is -1.16 ± 2.4.

Question: For QLRGWQYSKATREVDSREDR, which amyloid nucleation score is on record?
Answer: Its amyloid nucleation score is 0.646 ± 0.79.

Question: With RRSESGKCFDLLSSSLSVIN as the substance, how does the amyloid nucleation score read?
Answer: Its amyloid nucleation score is -0.786 ± 0.73.

Question: Which amyloid nucleation score does the source give for NFRNLSYCFQFPMFVARRLK here?
Answer: The amyloid nucleation score was 1.06 ± 0.67.

Question: For ITYIGWQGSNLYWLFTTTLV, which amyloid nucleation score is on record?
Answer: Its amyloid nucleation score is -1.12 ± 1.9.

Question: Which amyloid nucleation score does the source give for YLFHMKARCMLFHKLLTYSR here?
Answer: The amyloid nucleation score was “inactive”.

Question: Which amyloid nucleation score does the source give for CGFEVFVRIV here?
Answer: The amyloid nucleation score was 0.431 ± 0.7.

Question: For YVFSCTGLNR, which amyloid nucleation score is on record?
Answer: Its amyloid nucleation score is -1.03 ± 1.

Question: For WRAMAFVYLVASWSVGIRGR, which amyloid nucleation score is on record?
Answer: The amyloid nucleation score was 0.07 ± 1.

Question: Which amyloid nucleation score does the source give for KVLFLTCYTTPSLNNLVFRC here?
Answer: Its amyloid nucleation score is -0.069 ± 0.28.

Question: For HHAFFDIPRVRGEYECFAGI, which amyloid nucleation score is on record?
Answer: Its amyloid nucleation score is 0.192 ± 0.25.

Question: With PAVAGEWNARMGWEATRYKA as the substance, how does the amyloid nucleation score read?
Answer: The amyloid nucleation score was 0.669 ± 0.56.

Question: Which amyloid nucleation score does the source give for KSQGEVFRVAREGNFIIEES here?
Answer: Its amyloid nucleation score is -1.07 ± 1.2.

Question: For DFVLIFLRICSCPSHTNFYL, which amyloid nucleation score is on record?
Answer: The amyloid nucleation score was 3.45 ± 0.12.

Question: For AAGHVAVAIRNRVVIARSRT, which amyloid nucleation score is on record?
Answer: The amyloid nucleation score was 3.4 ± 0.11.

Question: Which amyloid nucleation score does the source give for VHESTSHRMWRSLI here?
Answer: Its amyloid nucleation score is 1.15 ± 0.41.
